How the values were obtained:
Assay in all cases: sucrose density gradient sedimentation
[1] = target: L80P mutant hemagglutinin (X:31 strain, HA2 L80P) (influenza virus, X:31 strain) (UniProt P03437)
[2] = target: S71P mutant hemagglutinin (X:31 strain, HA2 S71P) (influenza virus, X:31 strain) (UniProt P03437)
[3] = target: V55P/S71P double proline mutant hemagglutinin (X:31 strain, HA2 V55P and S71P) (influenza virus, X:31 strain) (UniProt P03437)

“L80P mutant hemagglutinin (X:31 strain, HA2 L80P) (from UniProt P03437 17-344) (natural protein)” was tested, and the stoichiometry N [1] was 3.

In the case of “S71P mutant hemagglutinin (X:31 strain, HA2 S71P) (from UniProt P03437 17-344) (natural protein)”, the stoichiometry N [2] is reported as 3.

For “V55P/S71P double proline mutant hemagglutinin (X:31 strain, HA2 V55P and S71P) (from UniProt P03437 17-344) (natural protein)”, the stoichiometry N [3] was 3.

From article PMC2132786
